According to patent publication US20110111454:

Columns and labels:
[1] = biological target: [Tn]-MalE-hGH (UniProt P01241)
[2] = tested on: IFNα2b[Tn]-FCHASE
[3] = biological target: IFNα2b[Tn] (UniProt P01563)
Chain of IFNα2b[Tn] (P01563 whole entry, looked up): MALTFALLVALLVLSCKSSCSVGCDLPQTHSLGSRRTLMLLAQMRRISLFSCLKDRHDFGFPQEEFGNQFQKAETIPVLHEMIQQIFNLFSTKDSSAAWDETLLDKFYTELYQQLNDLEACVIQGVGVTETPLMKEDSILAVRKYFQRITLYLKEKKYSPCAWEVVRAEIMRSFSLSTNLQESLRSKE

Chain of [Tn]-MalE-hGH (P01241 27-217): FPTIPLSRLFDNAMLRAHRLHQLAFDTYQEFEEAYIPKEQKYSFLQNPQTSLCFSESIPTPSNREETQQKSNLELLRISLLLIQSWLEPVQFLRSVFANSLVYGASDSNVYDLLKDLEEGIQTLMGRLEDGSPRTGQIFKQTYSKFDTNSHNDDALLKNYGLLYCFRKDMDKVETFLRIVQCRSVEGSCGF

Substance | PNA blot after the galactosylation reaction [1] | CE-MS mass shift of the peptide [2] | Specific Activity (mU/mg) on 1 mM IFNα2b[Tn]-FCHASE [2] [mU/mg] | percent of IFNα2b[Tn]-FCHASE converted into IFNα2b[T-Ag]-FCHASE after 30 minutes (capillary electrophoresis) [2] | MALDI mass of the galactosylated protein [3]
CgtB11168 (Δ30, C-terminal MalE) | Increased staining in Lane D after PNA blotting |  |  |  | 
CgtBOH4384 (Δ30, C-terminal MalE) |  | the molecular weight of IFNα2b[T-Ag]-FCHASE was 162 Dalton higher than that of IFNα2b[Tn]-FCHASE | 272 | 91.9% of the material had been converted into IFNα2b[T-Ag]-FCHASE | The presence of the species at m/z 19665 is the proof that the IFNα2b[Tn] protein can be galactosylated by CJL-136
CgtBOH4384 (Δ30, N-terminal MalE) |  |  | 14 |  | 
